# Test results taken from paper PMC9270392, “An ancestral function of strigolactones as symbiotic rhizosphere signals” (Nature Communications, 2022).
# Substrate: CC1=CC(O/C=C(C)\C=C\C2=C(C)CCCC2(C)C)OC1=O
# Assay: LC-MS/MS of BSB formed by yeast microsomes, Michaelis-Menten fit
# Format: biochemical, Marchantia paleacea
# Settings: rac-CL 0.25 to 33 μM, NADPH 500 μM, 28 °C, 10 min, microsomes of WAT11 yeast, overall two-step conversion CL to BSB via CLA
protein,measurement,value
"MpaMAX1 (Marchantia paleacea subsp. diptera) (protein, cDNA in pYeDP60, expressed in yeast WAT11 (Saccharomyces cerevisiae); microsomal fraction) MITSMEGWTGVGALGSLVFMVVIMVYYFYPTWKVRHIPVPPYTWFLGHIPLLTKHQALCWTMLAKDYGPMYRFHVGRQPMVMVTDAELCRQVGLKLFKQVPNRSNPAMIEGSSVLKKALFFSRDEQWSGMKSILQPLFHSDKMNNYTPIMTQIVDELLERLRSVKEGEDVNISRLFQRLTLDVIGEVAFGIKFGLVLETPGPDEWLVQTTVKSIDALRMDAGAGVPLSTIVGTFFPILQKPFRSLLRMIPGTPEWVADGSDHALKLRLRQIQQEREELMRRNGSVSRVDSLSLLLNSSKLNKQNGKLLTQDYIGALTYELTLVGSETSSVTLSMLTYLLALHPECERKMLAEIDAFGPRDLPITTEDLETKFPYVDMVIKETMRKHTTTPVVAREASEDIELGGYHLPKGTWVWLVLEALQMNPKDFPEPEEFRPERFDENCDEAKTRHPYAFLPFGVGPRSCLGKRFAAQEVKLTVVRLYQNFTFTLSPLTKVPLETQFGIVVRPKHGVCVRVHPRWTRL",Km,4.78 ± 1.22 µM
